Measured values from patent US20250155429A1.
Each block holds one substance with its values, some of them ahead of it.

Experiments:
CD8 [1] = experiment: same staining; plot CD8 against CD4: upper right 0.30, lower left 11.12
CD8 [2] = experiment: same staining; plot CD8 against CD3, all events CD3-positive: upper left 0.00, lower left 0.00, lower right 71.27
[3] = molecular target: CD3 (Homo sapiens (Human)) (UniProt P07766); experiment: flow cytometry of PBMCs, FSC-H against APC-A, No Quencher; Q4 100.0
CD45 [4] = experiment: flow cytometry of PBMCs, co-staining in the BSA series, 0% BSA; left quadrants 0.00 and 0.01
CD45 [5] = experiment: flow cytometry of PBMCs, co-staining in the BSA series, 10% BSA; left quadrants 0.00 and 0.01
CD45 [6] = experiment: flow cytometry of PBMCs, co-staining in the BSA series, 20% BSA; left quadrants 0.00 and 0.00
CD45 [7] = experiment: flow cytometry of PBMCs stained with four mouse IgG1 primaries, each pre-labelled with an anti-mouse IgG1 linker; plot CD3 against CD45: upper left 0.03, lower left 0.14
CD45 [8] = experiment: flow cytometry of PBMCs stained at once with mouse IgG1 anti-CD45 (linker-488, FITC), mouse IgG2a anti-CD3 (linker-555, PE), mouse IgG2b anti-CD4 (linker-647, APC); left plot: Q5 0, Q8 0.21

- % of cells, upper left quadrant (CD8-positive, CD4-negative) (CD8 [1]): 28.4%
- % of cells, upper right quadrant (CD3+/CD8+) (CD8 [2]): 28.7%
Substance: CD8 (65144-1-Ig) (antibody)

- Q3 (% of cells, APC-positive) [3]: 0.025%
Substance: mouse IgG1 isotype control (antibody)

- % of cells, lower right quadrant (CD45-positive, CD3-negative) (CD45 [4]): 47%
- % of cells, upper right quadrant (CD45-positive, CD3-positive) (CD45 [4]): 52.9%
- % of cells, lower right quadrant (CD45-positive, CD3-negative) (CD45 [5]): 46.1%
- % of cells, upper right quadrant (CD45-positive, CD3-positive) (CD45 [5]): 53.9%
- % of cells, lower right quadrant (CD45-positive, CD3-negative) (CD45 [6]): 45.7%
- % of cells, upper right quadrant (CD45-positive, CD3-positive) (CD45 [6]): 54.3%
- % of cells, lower right quadrant (CD45-positive, CD3-negative) (CD45 [7]): 28.5%
- % of cells, upper right quadrant (CD3+/CD45+) (CD45 [7]): 71.4%
- Q6 (% of cells, FITC-positive and PE-positive) (CD45 [8]): 55.4%
- Q7 (% of cells, FITC-positive and PE-negative) (CD45 [8]): 44.4%
Substance: CD45 (65109-1-Ig) (antibody)
